Earlier results on one molecule are cited in patent US20200354411A1, “Chimeric Molecule for Targeting c-Myc in Cells” (priority 2017, published 2020).

The data set deals with A549 cells. The settings on record: shown in the art.

B1: Omomyc: myc dominant negative peptide able to bind E-Box promoter and prevent c-myc binding, SEQ ID NO: 6 (peptide)
chain: TEENVKRRTHNVLERQRRNELKRSFFALRDQIPELENNEKAPKVVILKKATAYILSVQAETQKLISEIDLLRKQNEQLKHKLEQLRNSCA
modifications: Omomyc
On to B1, for which the “concentration at which treated cells showed apoptosis” value was 10 µM.
